Laboratory results reported in a protein production outcome set (Wang et al. 2014).
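Note: failed if final PepcDB status was selected cloned or expressed and not failed if soluble or beyond.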

Experiment: label from the status in PepcDB records
With “MVEHIFKRDGHAEKFQPYKIEDAIKKAFESVNVRYDDRIYTNVILAIESENLNSVECIQDRIELEFFKAGYFAVMKSFMNYRFLHKMQREHIYGLSEDTTYVNSTQSVEEYINKEDWRINANANTGYSNAGLVNNLAGKLIANYWLDKVYSKEEGYAHRNGDVHIHDLDCLTGYCAGWSLRSLLNEGFNGVRGRVESRAPKHLREALGQMANFLGILQSEWAGAQAFSSFDTYLAPYVFRDQLEFKEIKKAIKSFVYNLNVPARWGQSPFTNVTIDWTVPADLKDQIPTRNDRHLFEDIQEDALLVQEAQKRGASSLLSMTYKYFQAEMNLINRAFYEVMTEGDKTGQPFTFPIPTVNITEDFDWHGENTDLLFENTAKIGSSYFQNFIGSQYIRNEKGELVENPEAYKPNAVRSMCCRLQLDLRELLKRGGGLFGSAEMTGSIGVVTLNMARLGYRFRGDREGLMAELTKLMDLSKSTLEKKRQAVTELFHRGLYPYTKRYLPGFNNHFSTIGVNGINEMIRNFTNDQDNISSPSGMAFATEILEFMRERIRSYQEETGNLYNLEATPAEGTTYRFAKEDKKRYPQIIQAGMEENVYYTNSSQLPANFTDDPFEALTLQDELQCKYTGGTVLHLYMREKISSAEACRKLVKTVITSYKLPYITITPVFSVCPKHGYLRGEHEYCPLCDEEALLEIEQSQCC” the protein production was “failed”.
In the case of “MVEIFLRTLPFFVIIGLGFWAGRTRFFTPEATAYLTKFVFFFALSAMLFRFAATLPFAEIFNGQLVMGYLWGTAGVYGIASLVAFLRKLDVPTAAVEAQCAAIGNVGFLGLPMLAMLFGEAAIGPVMLVLSVDLIVFSSLIVILINGGRDGRLSLGTLRLIGMGLLKNPMIVSISAGLIWSSLRLPIPAPLNDFLTILGGAATPGALFAIGASLAGRSAERVQIAAWLSLCKLVIHPILVALAVLWVFPVDAFSASVAIAAAALPVAGNVYMLAAHYGVAPQRASAAILLSTAVSILTVPAFIAWVTSA”, the protein production is reported as “failed”.
For “MVEQLVSNAAILLAGFYIISLVYKEPITKELSTNKKIVIGIWAGLLGFALMVFGIPISNNVIVDLRHIPIIMVGFYGGPIPAIVSAIIISASRFLLSVNSAAIMAAVVMMLIGIITAIFGKRIEKFKIWGVFILNIIACSFVVINLHLILARESHFWINMTVFVLIALVIGAVSAGLMSNMIKSKQLFQKYEQDSTLDYLTKLSNVRQFDEKINHVMDAGSRQVTLMLIDIDYFKNINDTYGHDAGDAILKQLAIILKRNTSDGSEAFRNGGEEFSIVLLDCPIEKGNFFAEQVRRETEEYDFMIPSGQVVKITISVGVSSSKDGANTSEGLFKSADEALYKAKLTGRNQVCIADGN”, the protein production was “failed”.
With “MVERLLEIIERSLRKCPWLEKQSIETLLEALASEIEEVAEAVKKNDLANLEEEIGDLIYDALLVAAVAQRDYGIDLESAIQKVVEKISHRKPWLFWEEKISLEEAEKIWKERKKKI” the protein production was “not failed”.
For “MVEVYRLTKRHLDGAKSESALLNQIKIFSTCVGHGVGTIDFSEKVLEIPPAEFEAILQNGGEYLRFKLGNLSRYFEVEVFPEHAAKLLPEMMECPFKKVLEELREGYLVLRKDFKHA”, the protein production was “failed”.
With “MVEYDLSVIILNYNAKRFLEECINSIYENTKEIKFEVILVDNKSTDNSAEFIKEKFTGKEDFTFIESKVNCGFAAGNNKAIEVSKGRAVLLLNPDTVVNGNVIGETYKCLMKDDKVGVAGCKVLNPDGTLQLACRRMIPTPKDAFYKIFGLSKIFKNNKKFTRYNLTYASADEFIDVDSVSGSYLMIKKEVIDKIGYLDETFFMYGEEMDWCLRARKAGYIVRYCPVGTIIHYKGESSKQLSHKATYEFYRAMWIFYKKNNKGNIFLDSIVWLGVKFLLFIALIKLAILPKNRVGSKG” the protein production was “failed”.
In the case of “MVFCRGCAKEISDDAGTCPHCGAPQLIISSASANKEAPASGNWYFEVLKKYAVFTGRARRKEYWMFFLFNVLISIVIGVIGGLVGDGGILANLYSLAVLVPGIAVGVRRLHDTDRSGWWLLVPIANLVFLVQEGHAGPNRFGPSPK”, the protein production is reported as “failed”.
In the case of “MVFKRRDRRSPLQVLWELIWPRGGWTRAFHYVKHRVRRLPDRPERIARGIGAGVFASFTPFYGIHFVIAAILARLINGNILAGLSGTFFGNPLTYVPIGVVSLQTGHFLLGTEFHEGAKQGLMRKFARAAGDLKDNFLALFTDRDADWQALGLFFDEVFFPYMIGGIAPGIVAGVVCYYLSLPVISTYQKRRRAKIKAKFEAIKKKAQADLPNPGNPG”, the protein production is reported as “failed”.
For “MVFLKRFRAYGFKSYADEITINFTHSMTGIVGPNGSGKSNVVDALKWVLGERSMKHLRSKSGDDMIFFGSKDKPASKLAEVELTFDNSQKLLHDPRPEISVMRRIYRGSGQSEYYINGELVTLKEISGIFADIGLEKGSLGIISQGSVSFVEAKPEERRKIFEDASGIGRYTKRKEEVTNQLARTVQNLKQVSIVLNELKKDLKKLTIQADKAQRFVKLKEELKELELSVLVADYLKSQGELDRFNHQIGYIEQDFKLHEPQLQLLEDQLNIFNQRFRDADEQSIKLQQELQAVYQTINELEQRKAVIDVQLKNELSKKDEKHKIQALKKLIRVDQAQLESLQAQVLKTTSEITLLTNELSTVQTELDTTKLNLNQNSAALVYQQAQQEFLKAQNEEWVKTNPAHVLVKNVKALTGLLNTLNTFLKFEKQYEKALLKALGKSIGYLVVNNNLAALKAIDFLLTNQIGQVTFLPIDDIAFDTKIAPEHMEILQQLDGFLGVGSDHVSCDESLQPIVNALLGQVIIASDLQAALKLSSYTYKLYRVVTLNGETVYAGGIIQGGYVKDNLSLYNLQEKLASSEANITQLEHNEKQLRTNLTSLETKLNELNKKLKYEEILLEKFNERVNHTNKAILSYKIEYEQLTNESFDGTPHSFDETRLVESLNRAWAERDELNSQLKLNQELKETLAKSIKLAEAKTADLRALLDEQRSQLVLAREGKIRFENTIHNITDKINGGYKLTMEFAIANYNKPIKLSTMQAQNKIARMQSQLDEMGPINLESIAEIADKQKRFDDINGEYESLQTAIKDLQTAIGEIDELACKEFDELIQKVNAELPKTFNYLFGGGSCQIRYTDTDNVLLSGIEVFANPPGKNVANLMLLSGGEKTLVALSVLFSILRVSAFPLVILDEAESALDPANVERFANIIGNSSNNTQFLIITHRQGTMMKCDMLLGAAMQTKGVTKTFAVSLEKAEQYISKDKQN”, the protein production was “failed”.
For “MVFPSEQEQIEKFEKDHVAQHYFEVLRTLISKKSVFAQQVGLKEVANYLGEIFKRVGAEVEIDESYTAPFVMAHFKSSRPDAKTLIFYNHYDTVPADGDQVWTEDPFTLSVRNGFMYGRGVDDDKGHITARLSALRKYMQHHDDLPVNISFIMEGAEESASTDLDKYLEKHADKLRGADLLVWEQGTKNALEQLEISGGNKGIVTFDAKVKSADVDIHSSYGGVVESAPWYLLQALQSLRAADGRILVEGLYEEVQEPNEREMALLETYGQRNPEEVSRIYGLELPLLQEERMAFLKRFFFDPALNIEGIQSGYQGQGVKTILPAEASAKLEVRLVPGLEPHDVLEKIRKQLDKNGFDKVELYYTLGEMSYRSDMSAPAILNVIELAKKFYPQGVSVLPTTAGTGPMHTVFDALEVPMVAFGLGNANSRDHGGDENVRIADYYTHIELVEELIRSYE”, the protein production was “not failed”.
In the case of “MVGLGTVINVILIIVGGFVGLFLKNFLKESLQKSLMQAMGVAVLFISISGVLEKMMLVEKSHLISNHTNMMIITLALGTVLGELLSLDSYIDKFGNYLKQKTGSGNDIKFVEAFVTSTCTVCIGAMAVVGSIQDGIAADHSILFAKGMLDMIIIAIMTVSLGKGALFSALPVALLQGSLTIVAFFMGSLLNPSSLDYLNLVGNMLIFCVGVNLLFNLNIKVINMLPAIILAILWGSFI”, the protein production is reported as “failed”.
In the case of “MVIDFSAFYELPRLIDRLAAEGESSFAASRGQAVFPPLNIGEDESAVYVRALIPGGDLSALDLTLTDKTLVLRGELPPVRGRYYRQERRTGPFQRVVLLNVPIDRDRVHAAMRDGVLEVVLPKAQQERLRTIHITTR”, the protein production is reported as “failed”.
In the case of “MVIETGVWIVLLGATVTAVATGLGALPFLFVRDIGDWWLGVFNAAAGGLMLAASHSLITEGSMLSTGRTLIGILVGLALILGANTFISRGDDHDVAELAGADARKALLILGIMTAHSFAEGVGVGVSYGGGDELGAFITAAIAVHNIPEGLAISLVLVPRGTPLWKAAGWSIFTSLPQPLMAVPAFLFVLVFEPFLPIGFGLAAGAMIWMVFAELIPDALEDVPGPTAGAAVTLAFAALFAFQHFVLHV”, the protein production is reported as “failed”.
With “MVIGSGVFLTRTCYLRLQPPSLVLRRRFCAATTACSVPLNGNKKKKSEKEKVIVISGPTGAGKSRLAMELAKRLNGEIISADSVQVYKGLDVGSAKPSDSDRKVVPHHLIDILHPSQDYSVGQFYDDGRQATKDILNRGRVPIVTGGTGLYLRWFMYGKPDVPKPSPEVIAEAHDMLVGFQTEYNWDAAVELVVNAGDPKASSLPRNDWYRLRRSLEILKSTGSPPSSFRIPYDSFRVNLVAPDADDFLEDGSSADISIQNIETDLDYDFLCFFLSSPRVALYRSIDFRCEDMLSGPNGVLSEARWLLDLGLLPNSNPATRAIGYRQAMEYLLQCRRYEGESSPREFYAFLNKFQTASRNFAKRQMTWFRCEPMYHWLNASKPLDSILQCIYDAYESEAEMVEIPESLRMSKDVRDSREASELKGYRSKNRHFVRREDCSSVLEWIRSEGCKSEASCVESAIA” the protein production was “failed”.
With “MVIGVPKEIKTLENRVALTPGGVESLVRRGHTVLVERGAGEGSGLSDAEYARAGAELVGREEAWGAEMVVKVKEPLPEEYGFLREGLILFTYLHLAADRGLTEAMLRSGVTGIAYETVQLPDGTLPLLVPMSEVAGRMAPQVGAQFLEKPKGGRGVLLGGVPGVAPASVVILGGGTVGTNAAKIALGMGAQVTILDVNHKRLQYLDDVFGGRVITLTATEANIKKSVQHADLLIGAVLVPGAKAPKLVTRDMLSLMKEGAVIVDVAVDQGGCVETIRPTTHAEPTYVVDGVVHYGVANMPGAVPRTSTFALTNQTLPYVLKLAEKGLDALLEDAALLKGLNTHKGRLTHPGVAEAFGLPYTPPEEALRG” the protein production was “not failed”.
For “MVIGVTGKIGTGKSTVCEILKNKYGAHVVNVDRIGHEVLEEVKEKLVELFGGSVLEDGKVNRKKLAGIVFESRENLKKLELLVHPLMKKRVQEIINKTSGLIVIEAALLKRMGLDQLCDHVITVVASRETILKRNREADRRLKFQEDIVPQGIVVANNSTLEDLEKKVEEVMKLVWEKRE”, the protein production was “not failed”.
In the case of “MVIQEGFSFGNFIIDVFSIFLFILWFWLLITISGDLFRRHDVSGFAKVLWVIFLIVLPYIGVFAYILTQGRGMAERNQERAREARNELRQVVGFSVADELEKLDRLKASGSISEDEFKRLRAKLVE”, the protein production is reported as “failed”.
In the case of “MVIQIVIISPGDGNLSPAHLLHRFALSLLESLRGKKMMFVGTEEMYLSLICLLHSQIPENYKSMDYLWITHRLLSQDLEILVDYNAMIEFYWAPFLLESNSDNAIVDIVSDRIMRKGLINKHGKHWRGADIVVESSFKDGNKRIVEMESEDAYLMTMGKWVKKSMDPLRTKVFFSTMSPTHYKIEDWGGEQGKNFYNQTTPIQDMNHWPSDCSKTLMKVIGEELDQRADFLVTVLNITQLTSYRKDAHTSIYKKPWSPYDEGSASKSG”, the protein production is reported as “failed”.
In the case of “MVIRRLYQFCASHVVRNCSSLKCAQNIHGHNYEVEVFIETNRLDNANMALDFGLMQQEMQVFIESFDHAHHFWDKESLEFQRFIENHCVRYVKCSFNLSAESYALMFLYYLTKILQKSVFSNDEGELKVSSVRVHETKNGYAESFLKDLENPHFKSLVHDHCVSFSQGIQNLWHDKDFFNKIISDEKQCFFHAKPLHQIP”, the protein production is reported as “failed”.
In the case of “MVISSKITDDCSYVKCLSFMMKSRTGNILLAQPENLAHDDDLSQSLLSQVTAVWLWTSLSYGGKPIFNRGISQLVTKKWTIIFNTENTNNHVSLPAPQEISPRLRLASSGTWRLVIGTWE”, the protein production is reported as “failed”.
With “MVITGKFAMYVTAFVVTVSLIEAFVLWRKRRDGVKPFSWNEVWLSLADLAGRKLSVLLPLSLAAPVFSFAWDHRLFTITLNSALAVFLLFVGQEFCYYWYHRAAHRIRFFWATHAVHHSPNQLTLTSAYRLGWTGKLTGSAVFFAPLVLLGVRPEVVLATLSLNLLYQFWLHNDWMPKLGWFEYVFNTPSAHRVHHASNIDYLDANYGGVLIIFDRLFGTYVEERADEPCRYGLVHPTTTQNPIVNQFEHWVSLGRDMASASKLWHAAAYLIMPPGWAPNGKGTTTEILRRQQEELRQAGWQRPGVV” the protein production was “failed”.
